In patent US20060211087A1 (SALK INSTITUTE FOR BIOLOGICAL STUDIES, published 2006):

Target: T1, CRFR2β (CRF receptor 2 beta) (human, UniProt Q60748 35-411 (mouse entry))
T1 construct: also called CRFR2b; CRFRIIβ
Assay: 125I-BMP7 tracer (5x10^5 cpm) with or without unlabeled BMP7, Ni-NTA pull-down, gamma counting; CRFR2β as control receptor
Experimental: In a particular example, BMPRII, ALK3 and CRFR2β were incubated with 5×10⁵ cpm ¹²⁵I-BMP7 tracer in the presence or absence of 40 nM unlabeled BMP7 as competitor. BMPRII and ALK3 are type II and type I receptors of BMP7, respectively. CRFR2β is a G-protein coupled receptor with no known affinity for BMP7 and was included as a control. Samples were prepared in triplicate in 1.7 ml eppendorf tubes in a final volume of 1 ml binding buffer (150 mM NaCl, 50 mM Tris (pH 7.5), 0.1% BSA). Binding was performed for […] at room temperature. After an initial 60 minutes of binding, 20 μl of 50% Ni—NTA resin (Qiagen) was added to each sample and allowed to bind for the balance of the […] incubation period. Complexes were precipitated by centrifugation and washed three times in 1 ml binding buffer. After the final wash, bound ¹²⁵I-BMP7 tracer was quantified in a gamma counter. BMP7 was iodinated using a modified Cloramine-T procedure (see, e.g., Lawler et al., J. Neurosci. Meth., 49:141-53, 1993).

T1 sequence (Q60748 other isoform, or with tags, fused parts or gaps): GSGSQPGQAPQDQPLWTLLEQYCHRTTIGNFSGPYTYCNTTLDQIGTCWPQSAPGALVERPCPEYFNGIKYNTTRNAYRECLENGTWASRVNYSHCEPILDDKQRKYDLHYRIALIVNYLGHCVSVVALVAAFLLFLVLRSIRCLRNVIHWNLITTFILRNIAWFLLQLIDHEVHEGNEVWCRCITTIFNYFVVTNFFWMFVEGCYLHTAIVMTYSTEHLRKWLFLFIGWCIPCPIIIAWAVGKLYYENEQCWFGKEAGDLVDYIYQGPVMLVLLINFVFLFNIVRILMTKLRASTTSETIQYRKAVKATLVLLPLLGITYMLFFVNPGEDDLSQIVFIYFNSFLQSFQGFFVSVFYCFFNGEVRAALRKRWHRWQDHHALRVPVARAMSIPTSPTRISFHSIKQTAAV

B1: BMP7 (ligand, UniProt P18075 293-431, looked up)
chain: STGSKQRSQNRSKTPKNQEALRMANVAENSSSDQRQACKKHELYVSFRDLGWQDWIIAPEGYAAYYCEGECAFPLNSYMNATNHAIVQTLVHFINPETVPKPCCAPTQLNAISVLYFDDSSNVILKKYRNMVVRACGCH
modifications: 125I-iodinated by a modified Chloramine-T procedure (tracer); unlabeled form used as competitor
notes: also called unlabeled BMP7
B1: no binding (tested: 40 nM unlabeled BMP7).
